Experimental findings from PMC6500386 (Biochemistry, 2019) are described below.

The data set concerns the molecule itself. The data set is described as follows: SEC + native gel or EMSA.

B1: Bmp3, FAD-dependent prolyl-S-Bmp1(CP) oxidase (enzyme, Marinomonas mediterranea MMB-1)
chain: MNFEWTHEQAELFEHALRFGKELSAPLQEDNGFPRDNWNALGDFGYFGLPIPEKYAKDGSGFDILTTIKIIEGLGQSCTDTGLLFAGAAHTFACSMPILEHGSETLKHQLLPDLATGRKIAANAISEASAGSDISNLATTAQKEGDYYVLNGGKSYVTNGSIADYYVVYATTNKKHGYLGQTAFVVPRNTPGISVGNDYHKLGLRSAPLNQVFFDNCTIHKDYALGREGQGARIFAASMDWERCCLFAIFVGAMQRDLNQCIEYANTRMQGDKTISRFQAVSHRIADMGVRLESARLMLYYAAWQKSQDVDNTKAVAMSKLAISEAFVQSGIDSIRVHGALGYLDEGRVNNSIKDALGSVLFSGTSDIQRELICNRLGLL
For B1, the “stoichiometry N” value was found to be 4.
